Laboratory results published in patent US20190112340A1.

Legend:
[1] = target: bRSV F 391-2 DS-Cav1 (bovine RSV, strain 391-2) (UniProt P22167); assay: Fab binding to purified bRSV F trimer (Octet BLI as in Example 1)
[2] = target: bRSV F 391-2 post-F (bovine RSV, strain 391-2) (UniProt P22167); assay: as above
sc10 DS-Cav1 = assay: BLI (Octet), F on Ni-NTA tips, Fab in solution
[3] = target: sc9-10 DS-Cav1 N183GC, N428C S46G-N67I-E92D-S215P-K465Q (A2); assay: BLI (Octet), F on Ni-NTA tips, Fab in solution
sc9-19 DS-Cav1 = assay: BLI (Octet), F on Ni-NTA tips, Fab in solution
[4] = target: RSV F sc9-41 DS-Cav1 (human RSV subtype A (strain A2)) (UniProt P03420); assay: BLI (Octet), F on Ni-NTA tips, Fab in solution
sc9 DS-Cav1-105Q = assay: BLI (Octet), F on Ni-NTA tips, Fab in solution
[5] = target: sc9-10 DS-Cav1 A149C, Y458C S46G-S215P-K465Q (A2); assay: BLI (Octet), F on Ni-NTA tips, Fab in solution
sc8 DS-Cav1 = assay: BLI (Octet), F on Ni-NTA tips, Fab in solution
[6] = target: RSV F DS-Cav1 (human RSV subtype A (strain A2)) (UniProt P03420); assay: BLI (Octet), F on Ni-NTA tips, Fab in solution
sc4 DS-Cav1 = assay: BLI (Octet), F on Ni-NTA tips, Fab in solution
[7] = target: sc9-10 DS-Cav1 A149C, Y458C S46G-N67I-E92D-S215P-K465Q (A2); assay: BLI (Octet), F on Ni-NTA tips, Fab in solution
[8] = target: sc9-10 DS-Cav1 Q98C, Q361C L95M-I221M-R429K (B18537); assay: BLI (Octet), F on Ni-NTA tips, Fab in solution
sc9-24 DS-Cav1 = assay: BLI (Octet), F on Ni-NTA tips, Fab in solution
[9] = target: sc9-10 DS-Cav1 N183GC,N428C; assay: BLI (Octet), F on Ni-NTA tips, Fab in solution
[10] = target: RSV F sc9-42 DS-Cav1 (human RSV subtype A (strain A2)) (UniProt P03420); assay: BLI (Octet), F on Ni-NTA tips, Fab in solution
[11] = target: RSV F sc9-10 DS-Cav1 (human RSV subtype A (strain A2)); assay: BLI (Octet), F on Ni-NTA tips, Fab in solution
[12] = target: RSV F sc9-9 DS-Cav1 (human RSV subtype A (strain A2)) (UniProt P03420); assay: BLI (Octet), F on Ni-NTA tips, Fab in solution
sc11 DS-Cav1 = assay: BLI (Octet), F on Ni-NTA tips, Fab in solution
[13] = target: sc9-10 DS-Cav1 A149C, Y458C S46G-E92D-S215P-K465Q (A2); assay: BLI (Octet), F on Ni-NTA tips, Fab in solution
[14] = target: sc9-10 DS-Cav1 Q98C, Q361C S46G-E92D-L95M-S215P-I217P-I221M-R429K-K465Q (Long (VR26)); assay: BLI (Octet), F on Ni-NTA tips, Fab in solution
[15] = target: RSV F sc9 DS-Cav1 (human RSV subtype A (strain A2)); assay: BLI (Octet), F on Ni-NTA tips, Fab in solution
[16] = target: sc9-10 A DS-Cav1 A149C, Y458C; assay: BLI (Octet), F on Ni-NTA tips, Fab in solution
[17] = target: bRSV F 391-2 post-F (bovine RSV, strain 391-2) (UniProt P22167); assay: Motavizumab binding to stressed post-F protein as a fraction of the untreated protein (physical stability)

With Motavizumab Fab the Kd [1] was 800 pM, the Kd [2] was 600 pM and the Kd (sc10 DS-Cav1) was 22400 pM. It also gave a Kd [3] of 600 pM, a Kd (sc9-19 DS-Cav1) of 16700 pM and a Kd [4] of 40 pM. For the same substance, the Kd (sc9 DS-Cav1-105Q) was 16300 pM, the Kd [5] was 400 pM and the Kd (sc8 DS-Cav1) was less than 10 pM. For the same substance, the Kd [6] was 40 pM, the Kd (sc4 DS-Cav1) was 7600 pM and the Kd [7] was 100 pM. For the same substance, the Kd [8] was 200 pM, the Kd (sc9-24 DS-Cav1) was 15100 pM and the Kd [9] was 300 pM. For the same substance, the Kd [10] was 5900 pM, the Kd [11] was 9700 pM and the Kd [12] was 1000 pM. It also gave a Kd (sc11 DS-Cav1) of 29300 pM, a Kd [13] of 600 pM and a Kd [14] of 11100 pM. For the same substance, the Kd [15] was 13700 pM, the Kd [16] was 400 pM and the fractional antibody reactivity after 10 cycles of freeze-thaw [17] was 1. It also gave a fractional antibody reactivity after 50 °C [17] of 1, a fractional antibody reactivity after 70 °C [17] of 1 and a fractional antibody reactivity after osmolarity 10 mM [17] of 0.9. The fractional antibody reactivity after osmolarity 3000 mM [17] was 0.6, the fractional antibody reactivity after pH 3.5 [17] was 0.8 and the fractional antibody reactivity after pH 10.0 [17] was 1.1.
